The record followed here is patent US20220235144A1 (QILU PUGET SOUND BIOTHERAPEUTICS, published 2022).

For assay [1], the target named is T1, hSIRPαV2D1 with histidine tag (human).
T1 construct: analyte of the Biacore experiments; also called first immunoglobulin-like domain of human SIRPα variant V2; not shown: histidine tag
The experiment in a line: SPR (Biacore 3000), IgG captured on anti-human IgG, His-tagged D1 analyte. The text has this: (§1) Goat anti-human IgG capture antibody (Jackson Laboratories; 109-005-098) was immobilized on the four flow cells in each sensor chip using standard amine coupling chemistry. About 8000 resonance units (RU) of this antibody was immobilized on each flow cell. Flow cells 2, 3, and 4 were used to analyze captured anti-SIRPα antibodies (about 250 to 300 RU were captured on each of flow cells 2, 3, and 4), while flow cell 1 was used as the reference flow cell. The analytes tested were hSIRPαV1D1, hSIRPαV2D1, cynomolgus monkey SIRPαV1D1 (cSIRPαV1D1), cSIRPαV2D1, hSIRPβ1D1, and hSIRPγD1, each of which also included a histidine tag. The sequences of cSIRPαV1D1 and cSIRPαV2D2 are provided in SEQ ID NOs: 143 and 142, respectively. To avoid confusion, the differences between the amino acid sequences of cSIRPαV1D1 and cSIRPαV2D1 are not the same as the differences between the amino acid sequences of hSIRPαV1D1 and hSIRPαV2D1. […] The amino acid sequence of hSIRPβ1D1 can be found in amino acids 30-148 of SEQ ID NO: 144, and the amino acid sequence of hSIRPγD1 can be found in amino acids 31-149 of SEQ ID NO: 141.
(§2) Generally, concentrations from about 0.1×KD to about 10×KD are appropriate for kinetic analysis. From one to six different concentrations were evaluated for each antibody:analyte interaction, depending on the comparisons to be made in an individual experiment. All analyte dilutions were prepared in HPS-EP buffer. Multiple blank (running buffer) injections were run and used to assess and subtract system artifacts. The association phase and dissociation phase for all analyte concentrations were monitored for 180 seconds and 300 seconds, respectively, at a flow rate of 50 μL/min. Between antibody samples, the surfaces of the flow cells were regenerated with 10 mM glycine, pH 1.5 using two injections, each lasting 12 seconds at a flow rate of 50 μL/min.
(§3) The data were analyzed using BIAevaluation software (Biacore, General Electric (GE)). The data was fit using the 1:1 Langmuir model.
Background: SPR reads the build-up and loss of mass on a sensor chip optically.

For assay [2], the target named is T2, hSIRPαV1D1 with histidine tag (human, UniProt P78324 31-147).
T2 construct: analyte of the Biacore experiments; also called first immunoglobulin-like domain of human SIRPα variant V1; not shown: histidine tag
The assay is described as above.
Description: as §1, §2, §3

Assay [3] addresses T3, cSIRPαV1D1 with histidine tag (cynomolgus monkey (Macaca fascicularis), UniProt Q5TFQ8 30-146 (human entry)).
T3 construct: also called cynomolgus monkey SIRPαV1D1; not shown: histidine tag
T3 chain: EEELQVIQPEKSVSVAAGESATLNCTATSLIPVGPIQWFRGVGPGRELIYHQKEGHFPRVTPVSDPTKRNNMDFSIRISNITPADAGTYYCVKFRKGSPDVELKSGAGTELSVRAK
Described as above.
Description: as §1, §2, §3

Assay [4] has as its target T4, cSIRPαV2D1 with histidine tag (cynomolgus monkey (Macaca fascicularis), UniProt Q5TFQ8 30-146 (human entry)).
T4 construct: also called cynomolgus monkey SIRPαV2D1; not shown: histidine tag
T4 chain: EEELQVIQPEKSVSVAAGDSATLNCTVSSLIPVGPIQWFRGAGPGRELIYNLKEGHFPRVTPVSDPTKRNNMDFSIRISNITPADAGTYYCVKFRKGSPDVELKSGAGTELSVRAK
The description is as above.
Description: as §1, §2, §3

Assay [5] deals with T5, hSIRPβ1D1 with histidine tag (human, UniProt O00241 30-148).
T5 construct: analyte of the Biacore experiments; also called hSIRPβD1; not shown: histidine tag
The description is as above.
Description: as §1, §2, §3

The target of assay [6] is T6, hSIRPγD1 with histidine tag (human, UniProt Q9P1W8 31-149).
T6 construct: also called first immunoglobulin-like domain of human SIRP Gamma; not shown: histidine tag
The description is as above.
Description: as §1, §2, §3

The target of assay [7] is T7, hSIRPαV2 expressed on the cell surface (human, UniProt P78324 31-504).
T7 construct: whole, on cells; also called human SIRPα variant V2
The experiment in a line: FACS competition on EXPI293 cells stably expressing hSIRPαV2: biotinylated hCD47:Fc (2.5 µg/ml) mixed with serial dilutions of the antibody, bound hCD47:Fc detected with streptavidin-PE (MFI); blocked ligand: hCD47:Fc. Here is the method: The x axes show the antibody concentration in μg/ml. The y axes show mean fluorescence intensity (MFI) at about 572 nm (due to binding of biotinylated CD47:Fc, detected by a streptavidin-phycoerythrin conjugate).
(§4) Some of the anti-SIRPα antibodies described above were tested in vitro for their ability to inhibit binding of CD47 to hSIRPαV1 or hSIRPαV2 expressed on the surface of EXPI293™ cells stably transfected with DNA encoding these proteins. Briefly, stable transfectants expressing hSIRPαV1 or hSIRPαV2 were seeded into 96-well microtiter plates. […] After 30 minutes incubation, cells were washed, streptavidin-phycoerythrin (streptavidin-PE) was added, and cells were subjected to FACS to detect bound hCD47:Fc. Results were reported as a mean fluorescence intensity (MFI) using FlowJo software (FLOWJO, L.L.C., Ashland, Oreg., USA). FIGS. 4 and 5 show the MFI detected on the y axes of both panels and the antibody concentration on the x axes of both panels.

The target of assay [8] is T7, hSIRPαV2 expressed on the cell surface. Kind of assay: flow cytometry on primary human monocytes (FSC/SSC gate) in PBMCs expressing only SIRPαV2, antibody detected with APC-(Fab)2 goat anti-human IgG Fc (MFI at about 670 nm). Here is the method: FIG. 6: Binding of anti-SIRPα antibodies to T cells and monocytes. Methods are described in Example 4. […] The x axes show the antibody concentration in μg/ml. The y axes show mean fluorescence intensity (MFI) at about 670 nm (due to binding of allophycocyanin (APC)-conjugated (Fab)₂ goat anti-human IgG Fc-specific secondary antibody).
Some of the anti-SIRPα antibodies were tested in vitro for binding to primary T cells and monocytes in peripheral blood mononuclear cells (PBMCs). Briefly, PBMCs that expressed only SIRPα V2 were seeded in 96-well microtiter plates. Serial dilutions of anti-SIRPα antibodies were incubated with the cells on ice for 30 minutes. […] The cells were then subjected to FACs. T cells were gated based on their anti-CD4 or anti-CD8 binding (detected by FITC fluorescence), since T cells commonly express either CD4 or CD8. Monocytes were gated based on their forward scatter/side scatter (FSC/SSC) profile, since a characteristic FSC/SSC profile can identify monocytes. See, e.g., Marimuthu et al., Characterization of human monocytes subsets by whole blood flow cytometry analysis, J. Vis. Exp. (140), e57941, doi:10.3791/57941 (2018). The binding of anti-SIRPα antibodies to each population was reported as a mean fluorescence intensity (MFI) of the APC channel (670 nm).
(In general: A flow cytometer gives signals particle by particle.)

Assay [9] concerns the target T8, hSIRPαV1 expressed on the cell surface (human, UniProt P78324 31-504).
T8 construct: also called human SIRPα variant V1
Kind of assay: FACS competition on EXPI293 cells stably expressing hSIRPαV1: biotinylated hCD47:Fc (2.5 µg/ml) mixed with serial dilutions of the antibody, bound hCD47:Fc detected with streptavidin-PE (MFI); blocked ligand: hCD47:Fc. Here is the method:
(§5) The x axes show the antibody concentration in μg/ml. The y axes show mean fluorescence intensity (MFI) at about 572 nm.
as §4

For assay [10], the target named is T7, hSIRPαV2 expressed on the cell surface. The experiment in a line: FACS competition: inhibition of biotinylated hCD47:Fc (2.5 µg/ml) binding to EXPI293 cells expressing hSIRPαV2, FIG. 5A. Here is the method:
as §5, §4

B1: Ab11_G4 (antibody, human IgG4 S228P, kappa, V domains shown)
VH: EVQLVESGGGLVKPGGSLRLSCAASGFTFSSYVMSWVRQTPGKGLEWVATISSGGTYTYYPDSVKGRFTLSRDNAKNSLYLQMNSLRAEDTAVYYCASQLTGSEFDYWGQGTTVTVSS
VL: DIVITQSPASLAVSLGERATISCRASESVDSYGNSFMHWYQQKPGQPPKLLIYRASNLESGVPDRFSGSGSRTDFTLTINPLQAEDVATYYCHQSGDLPWTFGGGTKVEIKR
notes: human IgG4 format
One may read the Kd as the concentration at which binding is half-saturated. The EC50 (read off the curve) is the concentration that produces a half-maximal response. Turning to B1, the Kd in assay [1] was 3.09 nM; in [2], 231 nM; in assay [3], 127 nM; in assay [4], about 519 nM; in assay [5] it was 11.1 nM; in assay [6] it was about 7310 nM. Further, the “IC50 (read off the curve)” value in [7] was about 0.3 µg/mL. Moreover, in [8], the “EC50 (read off the curve)” value was about 0.06 µg/mL.

B2: Ab24_G4 (antibody, human IgG4 S228P, kappa)
heavy: not shown
light: DIVLTQSPASLAVSLGERATISCRASESVDLYGTSFMHWYQQKPGQPPKLLIYRASNLESGVPDRFSGSGSRTDFTLTINPLQAEDVATYYCHQSSDELPWTFGGGTKVEIKRTVAAPSVFIFPPSDEQLKSGTASVVCLLNNFYPREAKVQWKVDNALQSGNSQESVTEQDSKDSTYSLSSTLTLSKADYEKHKVYACEVTHQGLSSPVTKSFNRGEC
notes: human IgG4 format
With B2, the Kd in assay [1] is 0.956 nM; in assay [2], 21.4 nM; in assay [3] it was 8.59 nM; in assay [5], 0.217 nM; in assay [6] it was 140 nM. Besides, the concentration for a half-maximal effect (EC50 (read off the curve)) in assay [8] was about 0.03 µg/mL.

B3: Ab24_G2 (antibody, human IgG2, kappa)
heavy: EVQLVESGGGLVKPGGSLRLSCAASGFTFSSYVMSWVRQTPGKGLEWVATISSGGTYTYYPDSVKGRFTLSRDNAKNSLYLQMNSLRAEDTAVYYCASQLTGSEFDYWGQGTTVTVSSASTKGPSVFPLAPCSRSTSESTAALGCLVKDYFPEPVTVSWNSGALTSGVHTFPAVLQSSGLYSLSSVVTVPSSNFGTQTYTCNVDHKPSNTKVDKTVERKCCVECPPCPAPPVAGPSVFLFPPKPKDTLMISRTPEVTCVVVDVSHEDPEVQFNWYVDGVEVHNAKTKPREEQFNSTFRVVSVLTVVHQDWLNGKEYKCKVSNKGLPAPIEKTISKTKGQPREPQVYTLPPSREEMTKNQVSLTCLVKGFYPSDIAVEWESNGQPENNYKTTPPMLDSDGSFFLYSKLTVDKSRWQQGNVFSCSVMHEALHNHYTQKSLSLSPGK
light: DIVLTQSPASLAVSLGERATISCRASESVDLYGTSFMHWYQQKPGQPPKLLIYRASNLESGVPDRFSGSGSRTDFTLTINPLQAEDVATYYCHQSSDELPWTFGGGTKVEIKRTVAAPSVFIFPPSDEQLKSGTASVVCLLNNFYPREAKVQWKVDNALQSGNSQESVTEQDSKDSTYSLSSTLTLSKADYEKHKVYACEVTHQGLSSPVTKSFNRGEC
notes: like Ab24_G4 but with an IgG2 HC; also called Ab24_IgG2
As usually defined, the IC50 is the concentration that inhibits the measured activity by half. In the case of B3, the “IC50 (read off the curve)” value in assay [9] is about 0.4 µg/mL. Also, the IC50 in assay [10] came to 0.22 µg/mL.

B4: Ab24_4422 PA (antibody, human IgG4 S228P, kappa)
heavy: EVQLVESGGGLVKPGGSLRLSCAASGFTFSSYVMSWVRQTPGKGLEWVATISSGGTYTYYPDSVKGRFTLSRDNAKNSLYLQMNSLRAEDTAVYYCASQLTGSEFDYWGQGTTVTVSSASTKGPSVFPLAPCSRSTSESTAALGCLVKDYFPEPVTVSWNSGALTSGVHTFPAVLQSSGLYSLSSVVTVPSSSLGTKTYTCNVDHKPSNTKVDKRVESKYGPPCPPCPAPPVAGPSVFLFPPKPKDTLMISRTPEVTCVVVDVSHEDPEVQFNWYVDGVEVHNAKTKPREEQFNSTFRVVSVLTVVHQDWLNGKEYKCKVSNKGLAAPIEKTISKTKGQPREPQVYTLPPSREEMTKNQVSLTCLVKGFYPSDIAVEWESNGQPENNYKTTPPMLDSDGSFFLYSKLTVDKSRWQQGNVFSCSVMHEALHNHYTQKSLSLSPGK
light: DIVLTQSPASLAVSLGERATISCRASESVDLYGTSFMHWYQQKPGQPPKLLIYRASNLESGVPDRFSGSGSRTDFTLTINPLQAEDVATYYCHQSSDELPWTFGGGTKVEIKRTVAAPSVFIFPPSDEQLKSGTASVVCLLNNFYPREAKVQWKVDNALQSGNSQESVTEQDSKDSTYSLSSTLTLSKADYEKHKVYACEVTHQGLSSPVTKSFNRGEC
With B4, the “IC50 (read off the curve)” value in [9] was about 0.3 µg/mL. Further, the IC50 in [10] was determined as 0.17 µg/mL.
